Data: patent US20120231013A1
Values joined by “and” are separate entries in the source; they are usually repeats but may differ in a detail not shown here. Equal values may be shown once.

How the values were obtained:
[1] = molecular target: recombinant TIMP-3 (human or mouse; Table 2 does not say which); test: binding ELISA, Assay 3
[2] = molecular target: recombinant TIMP-3 (human or mouse; Table 2 does not say which); test: binding ELISA, Assay 1
[3] = molecular target: recombinant TIMP-3 (human or mouse; Table 2 does not say which); test: AlphaScreen, biotinylated TIMP-3, Assay 2
[4] = molecular target: recombinant TIMP-3 (human or mouse; Table 2 does not say which); test: AlphaScreen, biotinylated TIMP-3, Assay 1
[5] = molecular target: recombinant TIMP-3 (human or mouse; Table 2 does not say which); test: binding ELISA, Assay 2
MMP-13 = MMP-13 (UniProt P45452); test: cell-based or functional assay
[6] = molecular target: recombinant human TIMP-3 (human) (UniProt P35625); test: cell-based or functional assay
[7] = molecular target: recombinant human TIMP-3 (human) (UniProt P35625); test: indirect ELISA, huTIMP-3 captured by anti-TIMP-3 clone 277128
[8] = molecular target: recombinant human TIMP-3 (human) (UniProt P35625); test: direct ELISA, coated huTIMP-3
[9] = molecular target: recombinant mouse TIMP-3 (mouse) (UniProt P39876); test: direct ELISA, coated muTIMP-3
recombinant mouse TIMP-3 (mouse), sequence (P39876 24-211 limits assumed): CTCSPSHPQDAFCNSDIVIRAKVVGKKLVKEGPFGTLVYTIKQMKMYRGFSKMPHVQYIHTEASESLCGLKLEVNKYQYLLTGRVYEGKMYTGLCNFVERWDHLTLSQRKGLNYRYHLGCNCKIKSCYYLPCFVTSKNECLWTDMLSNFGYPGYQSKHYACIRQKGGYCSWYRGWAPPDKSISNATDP

LRP-1 Cluster II (C II) (peptide), sequence (chain): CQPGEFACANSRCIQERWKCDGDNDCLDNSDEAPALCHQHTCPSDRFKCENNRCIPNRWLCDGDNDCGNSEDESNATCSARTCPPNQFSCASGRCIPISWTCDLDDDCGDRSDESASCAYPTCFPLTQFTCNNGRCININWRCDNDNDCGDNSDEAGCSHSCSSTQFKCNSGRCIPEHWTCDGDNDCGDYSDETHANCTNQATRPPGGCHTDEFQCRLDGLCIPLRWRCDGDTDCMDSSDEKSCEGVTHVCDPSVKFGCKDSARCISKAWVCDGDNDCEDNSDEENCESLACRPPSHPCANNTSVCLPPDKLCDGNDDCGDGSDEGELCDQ
recombinant TIMP-3 (human or mouse; Table 2 does not say which), sequence (P35625 24-211): as the sequence (P39876 24-211 limits assumed) above, with S51T, E87D, H103Q, S183I counted along it
recombinant human TIMP-3 (human), sequence (P35625 24-211 limits assumed): as the sequence (P39876 24-211 limits assumed) above, with S51T, E87D, H103Q, S183I counted along it
LRP-1 peptide LA13-15, sequence (chain): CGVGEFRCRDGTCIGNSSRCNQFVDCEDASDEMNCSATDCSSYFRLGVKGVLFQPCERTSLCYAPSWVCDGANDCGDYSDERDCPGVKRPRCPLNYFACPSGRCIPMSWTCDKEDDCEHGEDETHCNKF

Substance	EC50 [2]	total signal (cps) [3]	total signal (cps) [4]	Direct Inhibition of MMP13 (% decrease), 1000 nM (MMP-13)	also measured
LRP-1 peptide LA3		2000 cps	2200 cps		
LRP-1 peptide LA8-9		6000 cps		23%	EC50 [1]: 249 nM; % of the inhibitory activity of TIMP-3 + peptide compared to TIMP-3 alone, 16 nM [6]: 95%; % of the inhibitory activity of TIMP-3 + peptide compared to TIMP-3 alone, 80 nM [6]: 91%; % of the inhibitory activity of TIMP-3 + peptide compared to TIMP-3 alone, 400 nM [6]: 91%; % of the inhibitory activity of TIMP-3 + peptide compared to TIMP-3 alone, 2000 nM [6]: 97%; EC50 [7]: 113 nM; EC50 [8]: 181 nM; EC50 [9]: 173 nM
LRP-1 peptide LA9		2000 cps		41%	EC50 [1]: 1500 nM; % of the inhibitory activity of TIMP-3 + peptide compared to TIMP-3 alone, 16 nM [6]: 104%; % of the inhibitory activity of TIMP-3 + peptide compared to TIMP-3 alone, 80 nM [6]: 104%; % of the inhibitory activity of TIMP-3 + peptide compared to TIMP-3 alone, 400 nM [6]: 105%; % of the inhibitory activity of TIMP-3 + peptide compared to TIMP-3 alone, 2000 nM [6]: 107%
LRP-1 peptide LA10		3000 cps		49%	
LRP-1 peptide LA13-15			1200 cps		
LRP-1 peptide LA16			2200 cps		
LRP-1 peptide LA18			2200 cps		
LRP-1 peptide LA18-20	300 nM		3000 cps		
LRP-1 peptide LA19			2200 cps		
LRP-1 peptide LA21-31	92 nM		30000 cps	29%	
LRP-1 peptide LA29-31	1000 nM and 300 nM		1200 cps	5%	% of the inhibitory activity of TIMP-3 + peptide compared to TIMP-3 alone, 16 nM [6]: 96%; % of the inhibitory activity of TIMP-3 + peptide compared to TIMP-3 alone, 80 nM [6]: 99%; % of the inhibitory activity of TIMP-3 + peptide compared to TIMP-3 alone, 400 nM [6]: 97%; % of the inhibitory activity of TIMP-3 + peptide compared to TIMP-3 alone, 2000 nM [6]: 96%

Second part, led by results:

EC50 [2]	total signal (cps) [3]	total signal (cps) [4]	Direct Inhibition of MMP13 (% decrease), 1000 nM (MMP-13)	Substance	also measured
45.5 nM	100000 cps			LRP-1 Cluster II (C II) (peptide)	EC50 [1]: 32.5 nM
	2000 cps	2200 cps		LRP-1 peptide LA4-5	EC50 [5]: 2000 nM
	2000 cps	2200 cps		LRP-1 peptide LA5	EC50 [5]: 1080 nM
	2000 cps		49%	LRP-1 peptide LA8	EC50 [1]: 396 nM; % of the inhibitory activity of TIMP-3 + peptide compared to TIMP-3 alone, 16 nM [6]: 101%; % of the inhibitory activity of TIMP-3 + peptide compared to TIMP-3 alone, 80 nM [6]: 71%; % of the inhibitory activity of TIMP-3 + peptide compared to TIMP-3 alone, 400 nM [6]: 74%; % of the inhibitory activity of TIMP-3 + peptide compared to TIMP-3 alone, 2000 nM [6]: 107%; EC50 [7]: 198 nM; EC50 [8]: 292 nM; EC50 [9]: 255 nM
	2000 cps		34%	LRP-1 peptide LA9-10	EC50 [1]: 3000 nM; % of the inhibitory activity of TIMP-3 + peptide compared to TIMP-3 alone, 16 nM [6]: 105%; % of the inhibitory activity of TIMP-3 + peptide compared to TIMP-3 alone, 80 nM [6]: 107%; % of the inhibitory activity of TIMP-3 + peptide compared to TIMP-3 alone, 400 nM [6]: 105%; % of the inhibitory activity of TIMP-3 + peptide compared to TIMP-3 alone, 2000 nM [6]: 107%
5000 nM		1200 cps	-2%	LRP-1 peptide LA11-13	
243 nM		3000 cps		LRP-1 peptide LA21-23	
		2200 cps		LRP-1 peptide LA23	
268 nM	9000 cps	6500 cps		LRP-1 peptide LA26-28	
		2200 cps		LRP-1 peptide LA27	
